How the values were obtained:
PdhR (his-tagged) [1] = target: T1, PdhR (his-tagged) (Escherichia coli, UniProt P0ACL9 1-254); assay: EMSA; 0.1 pmol DNA, 54 pmol PdhR; same binding activity as pdhR site; EMSA as in ref 7; 0.1 pmol of each DNA fragment with 54 pmol PdhR; buffer, salt, pH and temperature not given; conditions: protein: recombinant; tags: His; chain copies: 2; label: 5'DY682 (strand 1); 5'DY782 (strand 2); blunt
PdhR (his-tagged) [2] = target: T1, PdhR (his-tagged); assay: EMSA; 0.1 pmol DNA, 54 pmol PdhR; EMSA as in ref 7; 0.1 pmol of each DNA fragment with 54 pmol PdhR; buffer, salt, pH and temperature not given; conditions: protein: recombinant, tags: His, chain copies: 2, label: 5'DY682 (strand 1), 5'DY782 (strand 2)

T1 sequence (P0ACL9 whole entry, the tested form may be a part): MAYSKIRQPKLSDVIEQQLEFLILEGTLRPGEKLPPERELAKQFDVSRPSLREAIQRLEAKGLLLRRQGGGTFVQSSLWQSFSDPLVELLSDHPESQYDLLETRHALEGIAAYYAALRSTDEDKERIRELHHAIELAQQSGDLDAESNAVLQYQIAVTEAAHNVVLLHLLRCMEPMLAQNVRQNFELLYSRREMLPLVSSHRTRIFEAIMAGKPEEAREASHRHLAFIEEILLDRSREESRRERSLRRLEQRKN

B1: GlcDop (dsDNA)
DNA 1: CTATCTCTTTAGCTACCGGTCAGACCATTTTTTTTCCAGCTCT
DNA 2: AGAGCTGGAAAAAAAATGGTCTGACCGGTAGCTAAAGAGATAG
Question: Does B1 bind (PdhR (his-tagged) [1])?
Answer: binds

B2: PdhRop (dsDNA)
DNA 1: GCCGAAGTCAATTGGTCTTACCAATTTCATGTCTGTG
DNA 2: CACAGACATGAAATTGGAAGACCAATTGACTTCGGC
Question: Does B2 bind (PdhR (his-tagged) [2]; printed strands not exact complements: S23 lacks one T opposite an A of S22 (37/36 nt; possible misprint))?
Answer: binds

B3: MetBop (dsDNA)
DNA 1: AACGGCTATTTGGGATTTGCTCAATCTATACGCAAAGAAGTTT
DNA 2: AAACTTCTTTGCGTATAGATTGAGCAAATCCCAAATAGCCGTT
Question: Does B3 bind (PdhR (his-tagged) [2]; blunt)?
Answer: no binding

From paper PMC3265435, “More than just a metabolic regulator - elucidation and validation of new targets of PdhR in Escherichia coli”
